Data taken from US20170247463A1.

Tests used:
hFcγRIIa131H = assay: -
hFcγRIIIa158V = assay: -; range printed as 0.20~0.28
hFcγRI = assay: -; range printed as 0.12~0.28

- Kd (hFcγRIIa131H): 0.85 µM
- Kd (hFcγRIIIa158V): 0.2 µM
- Kd (hFcγRI): 0.00012 µM
Substance: IgG 1
